# Assay results: the RNAGym collection of RNA variant scans (doi:10.1073/pnas.2313332121)
# This sample holds only a part of the variants without activity.
# B1: TPR 5TU (parent)
# chain: GGAUCUUCUCGAUCUAACAAAAAAGACAAAUCUGCCACAAAGCUUGAGAGCAUCUUCGGAUGCAGAGGCGGCAGCCUUCGGUGGCGCGAUAGCGCCAACGUUCUCAACUAUGACACGCAAAACGCGUGCUCCGUUGAAUGGAGUUUAUCAUG
# Variants of: B1
# Test: polymerase ribozyme fitness, log enrichment relative to wild type (log ratio); higher = more active; in vitro selection for triplet polymerase activity
# Method in brief: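 To select mutant libraries of each subunit of a heterodimeric triplet polymerase ribozyme, built by PCR and transcribed, each was annealed with a biotinylated primer, partner subunit and triplets, then incubated frozen at −7 °C. Extended constructs were gel-excised, captured on streptavidin beads and amplified by RT-PCR, in one round carried out in triplicate. Illumina sequencing of input and output libraries kept genotypes with ≥10 input reads and ≥1 read per output. Fitness is the base-2 logarithm of genotype enrichment relative to wild-type enrichment, from inverse-variance-weighted replicate averages.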
row,Variant,polymerase ribozyme fitness (log ratio)
1,C18U A29U A91U A107U,≤ -4.2
2,A19C A22U C38G G58C C85U U102A,-1.87
3,C18U C95U,-0.678
4,C18G C27G U53G A120C,≤ -4.2
5,A17U U31A C57U C76U C96G C103G U146C,≤ -4.2
6,A17C C54U A73U G94U A106G,-2.62
7,A17C A120G,0.31
8,A19C U56A C85G U148A,-3.88
9,A17U A60C G88C,≤ -4.2
10,C18U C51A U53A C57U G59C C95A,-4.09
11,A17C G94A A121U U145A U148C,-1.99
12,A17U A28G G86C A106C C116A A119U,≤ -4.2
13,A17U C51U C95U C103A,-1.47
14,A19C C35U A52C U53A C79A A97U A98G C118A U139G A147G,≤ -4.2
15,A17C U56A,0.36
16,C18G U55A C85G,-2.84
17,A17U C76A A122G,-0.419
18,A17G C27U A41U,-1.51
19,A19C C27G A28C G58C G59C A64C C85U,≤ -4.2
20,A19C A66G,-3.95
21,A17G C76A A119U,-0.0837
22,A17C U31G G48A U53A G80C C85U G133U G140U A142U G152U,≤ -4.2
23,A17G C75A C87A A91C A115U G140U,≤ -4.2
24,C18G C57A A147U,0.567

row,Variant,polymerase ribozyme fitness (log ratio)
1,C18U A22G A30G G34U G42U U77A C96A,≤ -4.2
2,A17U U55A G59C G94U C132G,≤ -4.2
3,A17G C93G C108G,-4.11
4,C18U A26C C38U U78G A98U U145G U151A,≤ -4.2
5,A17C C93G,-3.8
6,C18U G34C U44A C75G C96A C99G A119C,≤ -4.2
7,A19C G59A G84U A98G A115U,-3.52
8,A17C G25C G62U,-3.17
9,A17U C18U G94C A115U,-3.41
10,C18G C57U G59A G80A G86U C108G C116U U145A C149G G152U,≤ -4.2
11,A19G C35U G58A C85A G143A,-3.66
12,A17C C96U A107C,-3.77
13,C18G A19U G25U A89U G94A C131U,-3.92
14,C18G U44A G83A C85A A98U U102G,≤ -4.2
15,A17C G50U C54U C96G,-1.28
16,C18A C36A G58A A64U C85A,≤ -4.2
17,C18G C32U G46C U53A C85U,≤ -4.2
18,C18U C32U A41G G48A G68C C87U G94U A107G C149A A150G,≤ -4.2
19,A17U G50A G67U G74A U134G,≤ -4.2
20,A17G G42U C51U C96U C108U,≤ -4.2
21,C18U A89C A91G A122U C125A U134C,≤ -4.2
22,A17U U44A U55G G136A,≤ -4.2
23,C18U,-0.399
24,C18A,-0.302

row,Variant,polymerase ribozyme fitness (log ratio)
1,C18G,-0.169
2,A17U G62U C85U G141U,-0.389
3,A17G C36U,-3.9
4,A17G C27A A29U U55A A64G C79A C93U A98G G100U G136A,≤ -4.2
5,A19C A52G,-0.125
6,A17G A39G C57A C96A,-2
7,A17G C57U G94C U139C U144A,≤ -4.2
8,A17C U33G G71A C85U G88U U111C A142G U146C,≤ -4.2
9,A17U G34U C43U C63A C87A A106C C108A,≤ -4.2
10,A17U A20G C63G U134G,-3.43
11,A17G C63U G88C,≤ -4.2
12,A19C U82G U109G C116A,-0.158
13,A17U A24C C32A G100A,≤ -4.2
14,A17U C18U A22C,-1.32
15,A19C G80A C96U C99U G124A,0.098
16,A17C C18A U33A G80C C87A C108A G152C,≤ -4.2
17,C18G A21U C93U G141U,0.314
18,A17U U77G C87G G92C A119C,≤ -4.2
19,A17G A21C G46C G58U U135G,-4.12
20,A17C G25C A30G U45A A49C G124U,-4.16
21,A19C C51G U55G C93U G126C,-2.57
22,A17U C108U,-3.48
23,A19G A52G G58U A64G U139A,≤ -4.2
24,A19G C51U C95A A115U,-3.61

row,Variant,polymerase ribozyme fitness (log ratio)
1,A17G A41G C54U,0.908
2,A17C A64C G83U,≤ -4.2
3,A19G A49G A52C U55A,-4.18
4,A17U A30C C35A U55G U109A,-4.11
5,A17G G86A C93U A97U,0.0217
6,A17C U53G G62U G117U,-2.27
7,A19G C79G,≤ -4.2
8,C18A A73U G86A A110G,≤ -4.2
9,C18U A19G A21C C35U U55A G92C A147U,-2.94
10,C18U A91G A120G C132U G141C,≤ -4.2
11,A19C C38G G70A G80C A98G C118U A150U,-3.77
12,A19G C57U G65A U102A G126U,-3.89
13,C18G A21G G48U U82A G100A G136A,≤ -4.2
14,C18U C35A A39U G50U U55G C108U,≤ -4.2
15,C18G C27U A64C C93U,≤ -4.2
16,C18U U55A A73G G86A G94C,≤ -4.2
17,C18U U45C A120C,-0.849
18,A17G G62U C87U A122G U127G C132G,≤ -4.2
19,A17U G42C G59A C69U C96G G141A U146C,≤ -4.2
20,A19C U33A U55A U77G C123G,≤ -4.2
21,A17U C38U C95U A115C A142U,-3.52
22,C18G A21G A23C A40U G70A C79G C87G G117C,≤ -4.2
23,A19C,0.425
24,A19G,-0.472

row,Variant,polymerase ribozyme fitness (log ratio)
1,A19G C27U C35A A73G U77A G80C,≤ -4.2
2,A17U G62U G84U,-2.48
3,C18G A29U U44G U55G C57A C93U U104G,≤ -4.2
4,C18G A21U,-0.776
5,C18G G88A G100C C103G,≤ -4.2
6,C18U G58A,-0.517
7,C18G G83U C95U,-2.08
8,C18G A20C U56G G94A,-1.51
9,A19C A49C A60G U101G G141A,-2.8
10,A17C C116G A138G U144A,≤ -4.2
11,C18U C54U C57A G83U,-1.15
12,C18G A41U A91G U148G,≤ -4.2
13,A19G A26G,-3.57
14,A19G A89C C105G,-1.99
15,A17G C27G C43U C87G A89C U109A A147U,≤ -4.2
16,C18U A30U C99G A106U,≤ -4.2
17,A19G C35U C75G C129A U135C U145G,≤ -4.2
18,A19G A29U A49G C118U,≤ -4.2
19,C18U A49U,-1.09
20,A19G C57U G92A U104G C116U,-4.18
21,A17G C69A U82G G86C G117U G140C U145A,≤ -4.2
22,A19G C38A U102C C108U,≤ -4.2
23,A19C G50C A52G,-2.64
24,A19C G128C,-3

row,Variant,polymerase ribozyme fitness (log ratio)
1,A17G A39G C79G A89U C96G,-4.19
2,A19C A52C C85U C96U C108G G140C,≤ -4.2
3,C18G A40U A47U U101G,-0.397
4,C18U A21G C99G A147U,-0.0193
5,A17G U31A,0.512
6,A17C C38A G94A,0.661
7,A17G A20U G42C A49C A52U U148A,≤ -4.2
8,A17U A26U A47C A49C G83C C85G,≤ -4.2
9,A19G A49G U56A A66G G67C C108U G136A C149A G152U,≤ -4.2
10,A17C C51A C93U A115U,-2.93
11,C18G C54U U61G C87U C95U,-3.85
12,C18U G48U C85A U144C,-2.83
13,A17G U33G G50U A52U G86C C105U A106C C125A,≤ -4.2
14,A19G C35U C51U C96U,-1.35
15,C18G G141C,-1.51
16,C18U G46U G94A C131U,-1.88
17,C18A C93U A113U A119C G140U,-4.1
18,A17G C32U C35G G62C C75A,≤ -4.2
19,C18U A22C A40U A89C,-0.248
20,C18G G84A,-1.41
21,C18U C51A A52G A122C,-1.98
22,A19C U31A G92U,0.391
23,A17U A23U A28G U55A G84A,≤ -4.2
24,A19C G62A C85A A137U U151A,≤ -4.2

row,Variant,polymerase ribozyme fitness (log ratio)
1,A19G A39C G92A C116A,≤ -4.2
2,C18G U53A U61A A137C,≤ -4.2
3,C18G A19C U33G C36U G46A C87U A110G,≤ -4.2
4,A17C C105U,1.03
5,A17G U134A,-2.69
6,C18U C38G A52G U101G,-1.69
7,A17G A47C U130A,-4.1
8,C18U A41G G46A U56G C85A U135G U144C,≤ -4.2
9,A17U A98U,-1.12
10,A17G A40G G50C C85A,≤ -4.2
11,C18G A22G A26U U31G U53A G68U C95U A115G,≤ -4.2
12,A17U A39C G80A G86U G117U U144C U148G,≤ -4.2
13,A19G C85A G86U C93U U148A,≤ -4.2
14,A17C C54A C87A C114U,≤ -4.2
15,C18U A19G G50A C54U G67C C69A G92C C114A A120U U134G,≤ -4.2
16,A17U U127A,-3.29
17,A19C A91U,-3.83
18,A19C A20U C54A,-1.03
19,C18G U61G U77G U82C C103G,≤ -4.2
20,A17U G86A,-0.694
21,A19G C27U G50A,-4.19
22,A19G C38U C76G C93A C103A G143U,≤ -4.2
23,A17G C54G C93G A106G G126U G141U U144C,≤ -4.2
